The values below come from IntAct's records for PubMed 22660413.

To fix the notation:
B1: Syntenin-1 (Mus musculus), O08992 (parent)
chain: MSLYPSLEDLKVDKVIQAQTAYSANPASQAFVLVDASAALPPDGNLYPKLYPELSQYMGLSLNEAEICESMPMVSGAPAQGQLVARPSSVNYMVAPVTGNDAGIRRAEIKQGIREVILCKDQDGKIGLRLKSIDNGIFVQLVQANSPASLVGLRFGDQVLQINGENCAGWSSDKAHKVLKQAFGEKITMTIRDRPFERTVTMHKDSSGHVGFIFKSGKITSIVKDSSAARNGLLTDHHICEINGQNVIGLKDAQIADILSTAGTVVTITIMPTFIFEHIIKRMAPSIMKSLMDHTIPEV
partner: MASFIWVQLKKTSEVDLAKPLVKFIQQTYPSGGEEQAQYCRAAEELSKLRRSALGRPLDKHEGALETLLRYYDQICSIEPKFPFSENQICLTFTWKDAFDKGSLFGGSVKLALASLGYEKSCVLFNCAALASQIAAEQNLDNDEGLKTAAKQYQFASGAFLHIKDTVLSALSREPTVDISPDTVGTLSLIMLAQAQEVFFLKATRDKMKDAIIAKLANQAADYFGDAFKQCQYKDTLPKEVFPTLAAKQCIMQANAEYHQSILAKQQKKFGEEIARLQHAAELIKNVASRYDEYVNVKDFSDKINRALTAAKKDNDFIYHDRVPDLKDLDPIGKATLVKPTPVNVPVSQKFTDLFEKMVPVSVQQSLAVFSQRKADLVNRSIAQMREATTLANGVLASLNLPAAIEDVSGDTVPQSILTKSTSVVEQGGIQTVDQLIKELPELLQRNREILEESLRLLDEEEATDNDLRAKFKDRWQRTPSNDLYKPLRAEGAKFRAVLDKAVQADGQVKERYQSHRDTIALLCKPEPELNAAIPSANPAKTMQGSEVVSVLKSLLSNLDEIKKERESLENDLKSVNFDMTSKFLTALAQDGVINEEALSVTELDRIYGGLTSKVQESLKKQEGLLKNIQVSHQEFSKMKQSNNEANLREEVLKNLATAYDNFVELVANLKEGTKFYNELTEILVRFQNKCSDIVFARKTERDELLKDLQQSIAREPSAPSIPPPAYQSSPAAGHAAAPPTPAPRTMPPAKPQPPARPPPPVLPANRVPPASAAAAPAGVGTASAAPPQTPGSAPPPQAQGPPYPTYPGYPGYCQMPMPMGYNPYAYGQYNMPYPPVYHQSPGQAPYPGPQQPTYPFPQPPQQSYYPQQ

Variants of B1 are the subject of the first assay. The following applies: with pdc6i_mouse Pdcd6ip.
As for MSLAASLEDLKVDKVIQAQTAYSANPASQAFVLVDASAALPPDGNLAAKLAAELSQYMGLSLNEAEICESMPMVSGAPAQGQLVARPSSVNYMVAPVTGNDAGIRRAEIKQGIREVILCKDQDGKIGLRLKSIDNGIFVQLVQANSPASLVGLRFGDQVLQINGENCAGWSSDKAHKVLKQAFGEKITMTIRDRPFERTVTMHKDSSGHVGFIFKSGKITSIVKDSSAARNGLLTDHHICEINGQNVIGLKDAQIADILSTAGTVVTITIMPTFIFEHIIKRMAPSIMKSLMDHTIPEV [Y4A;P5A;Y47A;P48A;Y51A;P52A], the “effect of a mutation on the interaction” value is “disrupting interaction”.

The variants in a further assay derive from B1. The following applies: with pdc6i_mouse Pdcd6ip. The source holds these as a separate data set.
MSLAASLEDLKVDKVIQAQTAYSANPASQAFVLVDASAALPPDGNLAAKLAAELSQYMGLSLNEAEICESMPMVSGAPAQGQLVARPSSVNYMVAPVTGNDAGIRRAEIKQGIREVILCKDQDGKIGLRLKSIDNGIFVQLVQANSPASLVGLRFGDQVLQINGENCAGWSSDKAHKVLKQAFGEKITMTIRDRPFERTVTMHKDSSGHVGFIFKSGKITSIVKDSSAARNGLLTDHHICEINGQNVIGLKDAQIADILSTAGTVVTITIMPTFIFEHIIKRMAPSIMKSLMDHTIPEV [Y4A;P5A;Y47A;P48A;Y51A;P52A]: the “effect of a mutation on the interaction” value was “disrupting interaction”.

In the case of MSLYPSLEDLKVDKVIQAQTAYSANPASQAFVLVDASAALPPDGNLYPKLAAELSQYMGLSLNEAEICESMPMVSGAPAQGQLVARPSSVNYMVAPVTGNDAGIRRAEIKQGIREVILCKDQDGKIGLRLKSIDNGIFVQLVQANSPASLVGLRFGDQVLQINGENCAGWSSDKAHKVLKQAFGEKITMTIRDRPFERTVTMHKDSSGHVGFIFKSGKITSIVKDSSAARNGLLTDHHICEINGQNVIGLKDAQIADILSTAGTVVTITIMPTFIFEHIIKRMAPSIMKSLMDHTIPEV [Y51A;P52A], the “effect of a mutation on the interaction” value was “disrupting interaction”.
